According to PMC7211019 (2020):
Ends that are not written are not given here.

Tests used:
Par3 PDZ3 [1] = biological target: T1, Par3 PDZ3 (rat, UniProt Q9Z340 582-685); experiment: FP
Par3 PDZ3 [2] = biological target: T1, Par3 PDZ3; experiment: FP; 0% 1,6-hexanediol
Par3 PDZ3 [3] = biological target: T1, Par3 PDZ3; experiment: FP; 10% 1,6-hexanediol
Par3 PDZ3 [4] = biological target: T1, Par3 PDZ3; experiment: FP; 5% 1,6-hexanediol
Par3 PDZ3 [5] = biological target: T1, Par3 PDZ3; experiment: FP; 25% 1,6-hexanediol
Par3 PDZ1 = Par3 PDZ1 (rat, UniProt Q9Z340 1-1337); experiment: FP
Par3 PDZ3 G600,602 A = Par3 PDZ3 G600,602 A (rat, UniProt Q9Z340 582-685, G600,602 A (G600A) | G600,602 A (G602A)); experiment: FP
Par3 PDZ2 = Par3 PDZ2 (Rattus norvegicus); experiment: FP
Sequence of Par3 PDZ2 (Rattus norvegicus) (chain, as listed by the source): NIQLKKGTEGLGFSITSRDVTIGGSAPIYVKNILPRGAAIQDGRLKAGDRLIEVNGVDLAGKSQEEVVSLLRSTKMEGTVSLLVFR

T1 sequence (Q9Z340 582-685): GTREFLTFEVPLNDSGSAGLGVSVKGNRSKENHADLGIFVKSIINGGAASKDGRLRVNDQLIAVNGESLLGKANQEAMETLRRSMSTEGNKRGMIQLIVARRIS
Sequence of Par3 PDZ1 (Q9Z340 whole entry): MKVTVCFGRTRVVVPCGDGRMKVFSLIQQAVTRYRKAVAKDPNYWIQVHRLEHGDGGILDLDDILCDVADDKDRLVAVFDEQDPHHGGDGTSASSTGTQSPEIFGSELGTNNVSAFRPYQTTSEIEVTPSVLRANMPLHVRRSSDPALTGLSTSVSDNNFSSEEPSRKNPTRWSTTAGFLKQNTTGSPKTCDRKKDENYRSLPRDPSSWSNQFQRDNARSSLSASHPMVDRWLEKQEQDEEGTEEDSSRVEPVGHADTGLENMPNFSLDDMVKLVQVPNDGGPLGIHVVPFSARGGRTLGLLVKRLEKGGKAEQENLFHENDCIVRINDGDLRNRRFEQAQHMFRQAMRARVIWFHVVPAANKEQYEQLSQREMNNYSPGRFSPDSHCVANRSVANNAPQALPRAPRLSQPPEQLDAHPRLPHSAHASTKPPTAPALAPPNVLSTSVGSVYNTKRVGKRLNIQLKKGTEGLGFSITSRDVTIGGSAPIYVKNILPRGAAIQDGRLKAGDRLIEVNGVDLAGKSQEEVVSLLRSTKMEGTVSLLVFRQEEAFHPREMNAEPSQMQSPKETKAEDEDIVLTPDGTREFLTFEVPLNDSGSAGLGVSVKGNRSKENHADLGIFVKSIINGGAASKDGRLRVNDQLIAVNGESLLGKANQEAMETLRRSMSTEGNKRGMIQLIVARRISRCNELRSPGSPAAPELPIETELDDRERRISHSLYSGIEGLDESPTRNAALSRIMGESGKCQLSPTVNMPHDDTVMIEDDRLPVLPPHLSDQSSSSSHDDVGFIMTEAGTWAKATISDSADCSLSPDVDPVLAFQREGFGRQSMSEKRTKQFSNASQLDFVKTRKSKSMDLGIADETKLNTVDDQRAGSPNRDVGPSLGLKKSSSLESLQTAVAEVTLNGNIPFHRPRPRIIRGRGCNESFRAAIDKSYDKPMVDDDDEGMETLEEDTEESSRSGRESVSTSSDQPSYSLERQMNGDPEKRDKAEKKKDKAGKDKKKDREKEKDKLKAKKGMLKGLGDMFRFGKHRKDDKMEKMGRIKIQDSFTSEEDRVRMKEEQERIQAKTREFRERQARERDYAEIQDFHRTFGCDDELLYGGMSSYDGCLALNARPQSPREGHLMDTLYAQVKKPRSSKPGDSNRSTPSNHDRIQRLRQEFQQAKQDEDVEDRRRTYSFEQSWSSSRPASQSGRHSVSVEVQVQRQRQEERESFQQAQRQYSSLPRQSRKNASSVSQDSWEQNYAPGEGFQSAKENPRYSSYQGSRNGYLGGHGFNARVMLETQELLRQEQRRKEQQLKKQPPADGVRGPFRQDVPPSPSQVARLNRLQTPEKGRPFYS
Sequence of Par3 PDZ3 G600,602 A (Q9Z340 582-685 G600A/G602A): as the sequence (Q9Z340 582-685) above, with G19A, G21A counted along it

Kd (Par3 PDZ3 [1]) [µM]	Kd (Par3 PDZ3 [2]) [µM]	Kd (Par3 PDZ3 [3]) [µM]	Kd (Par3 PDZ3 [4]) [µM]	Kd (Par3 PDZ3 [5]) [µM]	Kd (Par3 PDZ1) [µM]	Kd (Par3 PDZ3 G600,602 A) [µM]	Kd (Par3 PDZ2) [µM]	Binder
172								MRGDVSGFSL (also: FITC label, position not given here) [FITC-labeled Par6α PBM peptide]
1.1	1.1	9.7	4.9	22	104	20	161	LEEDGTIITL (also: FITC label, position not given here) [FITC-labeled Par6β PBM peptide]
1.3								VEEHGPAITL (also: FITC label, position not given here) [FITC-labeled Par6γ PBM peptide]
